Source: the DeepSol protein solubility set

Assay: soluble on expression in E. coli; label from the status in PepcDB or PDB records

Question: For “MSGETTRLTEPQLRELAARGAAELDGATATDMLRWTDETFGDIGGAGGGVSGHRGWTTCNYVVASNMADAVLVDLAAKVRPGVPVIFLDTGYHFVETIGTRDAIESVYDVRVLNVTPEHTVAEQDELLGKDLFARNPHECCRLRKVVPLGKTLRGYSAWVTGLRRVDAPTRANAPLVSFDETFKLVKVNPLAAWTDQDVQEYIADNDVLVNPLVREGYPSIGCAPCTAKPAEGADPRSGRWQGLAKTECGLHAS”, which “soluble on expression in E. coli” value is on record?
Answer: soluble

Question: With “MGSDKIHHHHHHMNQKNILTWGDVAYASRIATGGSKQEWEALELIWQAWEIIIYTGLATYSNKRELLLVVIRFFAIVSFYLEFFNDYYWEYYINNYSREWLKGIHIIPDYNEYIIDCVNGLCCPILPKSEPNNLLLYFVENALQQVMQVPMDSLNSDSMIFKSVWEISHQQFQLDGDIYELQRREAELISESIFLDKIINLAEIHENYNQNNEFIRDEAAIIEIFFDEDNTDLEWMKCTNHIDFQKSQEVIDATNKFIAFFSCYQIKPNFSLKHCSEIIGFNETDLKRWIRTINRKKQIILSGSPGTGKTFIAKHLAEHLIGGSDGFSELLQFHPTYSYEDFIQGIRPQSQDGQLTYPLVPGRFLKFCKEAEYHQGTCVLIIDEINRANLAQVFGELMYLLEYRNREIPLAGGNTFRIPENVRIIGTMNTADRSIANIDHALRRRFAFIELRPNYDVLRRYHQKRGFAVEGLINILQQLNQAIADKNYEIGISFFLTDNLREDMDDIWPMEIEPYLEEYFFNQLAKVDEFRWDKIKDKLWI” as the sequence, how does the “soluble on expression in E. coli” value read?
Answer: not soluble

Question: For “MELEFKCSDVGVWKEALSSYDSRIESLNKPELVSLDQFYRIKLPCLLHDRDPNPYLTTSELSQLMKWKLSRGKWRPRLLDFVSSLDDSVVKSASEKAFKSLPDISKAVKELTVLKGVGAATASAVLAAYAPDIAPFMSDEAMEVALGNSKDYSLKQYLLFATKLQDKAKELKLKGEWDGPSDIERALWSCTVRAKSQPEKSSSGKKRKR”, which “soluble on expression in E. coli” value is on record?
Answer: not soluble

Question: For “MAHHHHHHMTMFGKIHVYKRTYEICSIILKNYFVYYHPLYLDFYLSFAWYNKGSNNEKAFLHFLREFILLQINVCSKRCREKKMEILKMNENFEHLVFSIIFKNNKEEEDNKNKYDINENVNIRRLDNYVSSSFLNDICYPHCNIYNENKNFDILKNFDFLKSNILLASSLHYFINSLFCYYNNDDFINKYKSTDFIFDSILLCIKSLESVKRTYRLSTYTEKGFGNVCLDISLMIIKLKLKHPKFLEKKDNWMLYALRNAMEAEEVTEKK”, which “soluble on expression in E. coli” value is on record?
Answer: not soluble

Question: With “MGSSHHHHHHSSGEDRYKEKLLQKAKAEGVESIEELKKRLADQIEEKKKELNKIDPLRELEQHLNAGSRIHTNKEHKTTKMSNKSNEKSGNVLPKDKPYKTLDDYLKLDKIKDLSKQEVEFLWRAKWSNRDDSLVAVVPYVKTFQGMYKYAVKNPLFVLPLPRENAADGNKADKDSVPVELQYVQWQFAGPNTVHCLITSLAEYKLHQDFAKPHTTIQFHLDLANDKDMVLMNGQVESDSNVSLQDAQLLLLNVQRFYGAMGSETSIAKERIQLLEDFNKGSQNFDINKLIQLAQSMEN” as the sequence, how does the “soluble on expression in E. coli” value read?
Answer: soluble

Question: For “MNSRIMFIGGVPGVGKTSISGYIARNTDIDIVLSSDYLREFLRPFAPQESHLETSVYDAWKFYGDMSDDNIIRGYLDQARPIMGGINRVIARALANGEDLIIESLYFVPDMMDEMVLKNAFLAYVYIDDPDLHRSRLEDRINYTHRNSPGSRLAAHLKEYRTIMDYSMDMARGRGIGLYSTDDYALARQRLLDDFRKFVDRR”, which “soluble on expression in E. coli” value is on record?
Answer: not soluble

Question: For “MAHHHHHHMADGKAENELMEIEEIAVSDGGAARFAPVEVKSGEEKYNIVWEETGKLLRFDEGENAWKERGQGMAKILQKKEDSGVYMFVFRREGVGKLAAQHYLLRGMTIKVHPQSEKALLWTAFKDYSDDEEGFPERFVLRFASKELADSGLKAFNDALSKTTT”, which “soluble on expression in E. coli” value is on record?
Answer: soluble

Question: With “ETDETLGEREIRRVLARSGEEGNIDASEVDMIERVFDLDDTVVREVMVPRPDVVSVPADATMSDIRAVVLDEGHTRYPVVDADDSDQIVGFIDVKDVLRAGEEGNENTTAGDIAHEIPVVPETTAINDLLLQFRQDRRQMAAVIDEWGSLEGIATIEDVVEAVVGDLRDEFDVDGREHAIRKQSDGSYDADGGV” as the sequence, how does the “soluble on expression in E. coli” value read?
Answer: not soluble

Question: With “MSLSNRAGEILIVEDSPTQAEHLKHILEETGYQTEHVRNGREAVRFLSLTRPDLIISDVLMPEMDGYALCRWLKGQPDLRTIPVILLTILSDPRDVVRSLECGADDFITKPCKDVVLASHVKRLLSGVKRTEERYSRESITLAFGNEGHHHHHH” as the sequence, how does the “soluble on expression in E. coli” value read?
Answer: soluble

Question: Which “soluble on expression in E. coli” value does the source give for “AQYEDGKQYTTLEKPVAGAPQVLEFFSFFCGHAYQFEEVLHISDNVKKKLPEGVKMTKYHVNFMGGDLGKDLTQAWAVAMALGVEDKVTVPLFEGVQKTQTIRSASDIRDVFINAGIKGEEYDAAWNSFVVKSLVAQQEKAAADVQLRGVPAMFVNGKYQLNPQGMDTSNMDVFVQQYADTVKYLSEKK” here?
Answer: soluble

Question: For “MIPLSIRVPASTANVGPGFDSVGIALSLYLHVVVKEKSDKWQVIHSFEDSIPTDDKNLIVSTACKVCPSLSPHIIEVTSNIPLTRGLGSSASAIVAGIELANQLGKLNLTIDQKVQIATNFEGHPDNVAASILGGTVIGALDGKNVSVVRIESKELGVISLIPNEELNTDESRSVLPDVFPFHEAVKASAISNVLVAALCQKKWKVVGEMMERDHFHEPYRLELVPLLPSIRKCAKEFGAYGTALSGAGPSIFILTPYEKRQEIAEQLARVFTSMKVCELEIDHRGITVNKKEHIGL”, which “soluble on expression in E. coli” value is on record?
Answer: not soluble

Question: With “MGSDKIHHHHHHMTKPLINLVHANGFPAGSYKTFLQEFDNDFRTIAHNQFGHNVLYPIHNNWQHLVTELVEFIKKQDEKVICVGHSFGGVISFIAACQHPELFRGLVMLDPPVVTGAFSHLLSFIKRTPYIDKLSPAGKAKTRQNQWPENTNLVDYFSQKTLFKNFDSRCLQDYASSSVVLRNKRLELSFSPAVEADIFRHLPTNLVKYKNKLTVPAKLIYGEKTQIFPIKHFVRFAKLNDIELMTLPNGGHMFPLEQPENTANMVKQIIKDW” as the sequence, how does the “soluble on expression in E. coli” value read?
Answer: not soluble

Question: With “SIVLEPIYWNSSNSKFLPGQGLVLYPQIGDKLDIICPKVDSKTVGQYEYYKVYMVDKDQADRCTIKKENTPLLNCAKPDQDIKFTIKFQEFSPNLWGLEFQKNKDYYIISTSNGSLEGLDNQEGGVCQTRAMKILMKVGQDAS” as the sequence, how does the “soluble on expression in E. coli” value read?
Answer: soluble

Question: Which “soluble on expression in E. coli” value does the source give for “MKIAALYDIHGNYPALKEVLKQVKKLSPDLVVLGGDLIAGPMPLETLSLLKHVSTTFKTVGIMGNNDQDIVDIYAKKRVGLSRKATEQLTWIANQLSYKQVSFLRNLLPSISIGNYFFCHAVKNDNTTVFSPQQNKAYIETLFKGVQESYIICGHTHIQFELSLPNKKIINAGSIGMPFSNQFGAQWLWLDDNRIEYKRTIFNQQAAIQLISQTEYPFKNEFIANNLRSTISLSQGYSILNTLIRAQNAQHDLSLEHHHHHH” here?
Answer: soluble

Question: For “MLENSKKLIMNFVLKYSKKKRQNSGINISEICKFFEHVPLSCAALGLATKKNFGGEICAFKERKIKNYCKIFEPKSALFQTPPPPLIVGVISGAH”, which “soluble on expression in E. coli” value is on record?
Answer: soluble

Question: With “MDEDLTPIPSLTPDIQKFRIYGRVTYFQENKNGNGIHFLLTDSLGCSIKCIVTVEAVVKHCKDQLKLGQPCYVRGGRVDYHDKRYPNRTGHDCVIFNNNIAEIQITTVATNFVTPIATLNAPKIIYKVHGMITQRGKYSKKEVFCFVITDDKGDSVNVAAFCEFADWLYENLKEKQWYYLYCGLIEKVCKPDDQKEPNNVIILHNKCQIETPSDPSVADPFAELDDLNCTINKMKL” as the sequence, how does the “soluble on expression in E. coli” value read?
Answer: not soluble

Question: Which “soluble on expression in E. coli” value does the source give for “MKTLPPILSNIIEKVTNTEPANVEDKLPMNILVLGSDEKQGGRSDTIMLVHIQKDFQPIVISIPRDTRVKVEGIKGYSKINAAYAYGKSKLAVKTVEDILGIKIDKYVVVNYEAVEKIVDLVGGVDVEVPFHLYYVDTTPGKELYINIPAGLQHLDGKKAVEFLRWRHNSNGKEYGRGGDLGRIEMQRKLLYALIEKMLKPQNIVRLPLIVQTVSKYTDHNFTKNEIMWFIQNVGKFNTQNIMMTILPGYPKYIDRVSYYILNEEKCRALIDDLNEPEVLKDSMKIKILSKSFDDKATQLKNDLESKGYSNVNLGRVSKLESSEVELKRVNRKYLELLKNDIDLSTYQVVYSPDYSDKFDVYIKVKLEHHHHHH” here?
Answer: soluble

Question: With “AIASSAPAPGPAPASLTLWDEEDFQGRRCRLLSDCANVCERGGLPRVRSVKVENGVWVAFEYPDFQGQQFILEKGDYPRWSAWSGSSSHNSNQLLSFRPVLCANHNDSRVTLFEGDNFQGCKFDLVDDYPSLPSMGWASKDVGSLKVSSGAWVAYQYPGYRGYQYVLERDRHSGEFCTYGELGTQAHTGQLQSIRRVQH” as the sequence, how does the “soluble on expression in E. coli” value read?
Answer: soluble
